B1: ^CFPCAND1 (natural protein)
chain: MASASYHISNLLEKMTSSDKDFRFMATNDLMTELQKDSIKLDDDSERKVVKMILKLLEDKNGEVQNLAVKCLGPLVSKVKEYQVETIVDTLCTNMLSDKEQLRDISSIGLKTVIGELPPASSGSALAANVCKKITGRLTSAIAKQEDVSVQLEALDIMADMLSRQGGLLVNFHPSILTCLLPQLTSPRLAVRKRTIIALGHLVMSCGNIVFVDLIEHLLSELSKNDSMSTTRTYIQCIAAISRQAGHRIGEYLEKIIPLVVKFCNVDDDELREYCIQAFESFVRRCPKEVYPHVSTIINICLKYLTYDPNYNYDDEDEDENAMDADGGDDDDQGSDDEYSDDDDMSWKVRRAAAKCLDAVVSTRHEMLPEFYKTVSPALISRFKEREENVKADVFHAYLSLLKQTRPVQSWLCDPDAMEQGETPLTMLQSQVPNIVKALHKQMKEKSVKTRQCCFNMLTELVNVLPGALTQHIPVLVPGIIFSLNDKSSSSNLKIDALSCLYVILCNHSPQVFHPHVQALVPPVVACVGDPFYKITSEALLVTQQLVKVIRPLDQPSSFDATPYIKDLFTCTIKRLKAADIDQEVKERAISCMGQIICNLGDNLGSDLPNTLQIFLERLKNEITRLTTVKALTLIAGSPLKIDLRPVLGEGVPILASFLRKNQRALKLGTLSALDILIKNYSDSLTAAMIDAVLDELPPLISESDMHVSQMAISFLTTLAKVYPSSLSKISGSILNELIGLVRSPLLQGGALSAMLDFFQALVVTGTNNLGYMDLLRMLTGPVYSQSTALTHKQSYYSIAKCVAALTRACPKEGPAVVGQFIQDVKNSRSTDSIRLLALLSLGEVGHHIDLSGQLELKSVILEAFSSPSEEVKSAASYALGSISVGNLPEYLPFVLQEITSQPKRQYLLLHSLKEIISSASVVGLKPYVENIWALLLKHCECAEEGTRNVVAECLGKLTLIDPETLLPRLKGYLISGSSYARSSVVTAVKFTISDHPQPIDPLLKNCIGDFLKTLEDPDLNVRRVALVTFNSAAHNKPSLIRDLLDTVLPHLYNETKVRKELIREVEMGPFKHTVDDGLDIRKAAFECMYTLLDSCLDRLDIFEFLNHVEDGLKDHYDIKMLTFLMLVRLSTLCPSAVLQRLDRLVEPLRATCTTKVKANSVKQEFEKQDELKRSAMRAVAALLTIPEAEKSPLMSEFQSQISSNPELAAIFESIQKDSSSTNLESMDTS
B2: ^CFPCAND2 (natural protein)
chain: MSTAAFHISSLLEKMTSSDKDFRFMATSDLMSELQKDSIQLDEDSERKVVKMLLRLLEDKNGEVQNLAVKCLGPLVVKVKEYQVETIVDTLCTNMRSDKEQLRDIAGIGLKTVLSELPPAATGSGLATNVCRKITGQLTSAIAQQEDVAVQLEALDILSDMLSRLGVPLGAFHASLLHCLLPQLSSPRLAVRKRAVGALGHLAAACSTDLFVELADHLLDRLPGPRVPTSPTAIRTLIQCLGSVGRQAGHRLGAHLDRLVPLVEDFCNLDDDELRESCLQAFEAFLRKCPKEMGPHVPNVTSLCLQYIKHDPNYNYDSDEDEEQMETEDSEFSEQESEDEYSDDDDMSWKVRRAAAKCIAALISSRPDLLPDFHCTLAPVLIRRFKEREENVKADVFTAYIVLLRQTQPPKGWLEAMEEPTQTGSNLHMLRGQVPLVVKALQRQLKDRSVRARQGCFSLLTELAGVLPGSLAEHMPVLVSGIIFSLADRSSSSTIRMDALAFLQGLLGTEPAEAFHPHLPILLPPVMACVADSFYKIAAEALVVLQELVRALWPLHRPRMLDPEPYVGEMSAVTLARLRATDLDQEVKERAISCMGHLVGHLGDRLGDDLEPTLLLLLDRLRNEITRLPAIKALTLVAVSPLQLDLQPILAEALHILASFLRKNQRALRLATLAALDALAQSQGLSLPPSAVQAVLAELPALVNESDMHVAQLAVDFLATVTQAQPASLVEVSGPVLSELLRLLRSPLLPAGVLAAAEGFLQALVGTRPPCVDYAKLISLLTAPVYEQAVDGGPGLHKQVFHSLARCVAALSAACPQEAASTASRLVCDARSPHSSTGVKVLAFLSLAEVGQVAGPGHQRELKAVLLEALGSPSEDVRAAASYALGRVGAGSLPDFLPFLLEQIEAEPRRQYLLLHSLREALGAAQPDSLKPYAEDIWALLFQRCEGAEEGTRGVVAECIGKLVLVNPSFLLPRLRKQLAAGRPHTRSTVITAVKFLISDQPHPIDPLLKSFIGEFMESLQDPDLNVRRATLAFFNSAVHNKPSLVRDLLDDILPLLYQETKIRRDLIREVEMGPFKHTVDDGLDVRKAAFECMYSLLESCLGQLDICEFLNHVEDGLKDHYDIRMLTFIMVARLATLCPAPVLQRVDRLIEPLRATCTAKVKAGSVKQEFEKQDELKRSAMRAVAALLTIPEVGKSPIMADFSSQIRSNPELAALFESIQKDSASAPSTDSMELS

Molecular target: CUL1^FlAsH preassembled with SKP1·SKP2 (UniProt Q13616;P62877;P63208;Q13309, FlAsH fluorophore on the C-terminal tetracysteine tag)
Assay: FRET or BRET

Sequence of CUL1^FlAsH preassembled with SKP1·SKP2 (Q13616 whole entry, chain 1 of 3): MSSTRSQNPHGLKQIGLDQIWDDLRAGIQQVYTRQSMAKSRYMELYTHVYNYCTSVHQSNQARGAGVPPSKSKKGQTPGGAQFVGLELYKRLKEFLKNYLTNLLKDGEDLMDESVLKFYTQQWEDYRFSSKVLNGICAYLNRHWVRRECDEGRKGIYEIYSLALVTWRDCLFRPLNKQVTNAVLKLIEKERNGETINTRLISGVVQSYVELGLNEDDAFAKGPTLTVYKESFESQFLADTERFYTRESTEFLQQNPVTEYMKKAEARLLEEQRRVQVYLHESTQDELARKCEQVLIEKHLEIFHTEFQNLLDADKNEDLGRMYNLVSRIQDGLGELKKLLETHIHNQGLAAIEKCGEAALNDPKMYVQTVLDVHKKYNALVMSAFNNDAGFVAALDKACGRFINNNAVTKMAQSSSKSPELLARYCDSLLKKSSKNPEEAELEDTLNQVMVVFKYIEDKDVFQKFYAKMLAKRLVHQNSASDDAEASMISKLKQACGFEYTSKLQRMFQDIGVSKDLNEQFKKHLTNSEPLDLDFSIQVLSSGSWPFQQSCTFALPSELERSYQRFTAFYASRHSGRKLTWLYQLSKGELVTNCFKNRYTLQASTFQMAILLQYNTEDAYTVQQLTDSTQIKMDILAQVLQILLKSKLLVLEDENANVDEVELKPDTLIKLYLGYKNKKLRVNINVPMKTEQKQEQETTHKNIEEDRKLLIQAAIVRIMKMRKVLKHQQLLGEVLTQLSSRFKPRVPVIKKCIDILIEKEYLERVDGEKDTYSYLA
Sequence of CUL1^FlAsH preassembled with SKP1·SKP2 (P63208 whole entry, chain 3 of 3): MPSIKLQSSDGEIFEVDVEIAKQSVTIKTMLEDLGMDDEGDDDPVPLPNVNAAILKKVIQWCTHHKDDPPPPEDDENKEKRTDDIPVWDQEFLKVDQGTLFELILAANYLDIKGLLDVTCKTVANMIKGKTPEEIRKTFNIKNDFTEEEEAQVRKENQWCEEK
Sequence of CUL1^FlAsH preassembled with SKP1·SKP2 (Q13309 whole entry, chain 4 of 3): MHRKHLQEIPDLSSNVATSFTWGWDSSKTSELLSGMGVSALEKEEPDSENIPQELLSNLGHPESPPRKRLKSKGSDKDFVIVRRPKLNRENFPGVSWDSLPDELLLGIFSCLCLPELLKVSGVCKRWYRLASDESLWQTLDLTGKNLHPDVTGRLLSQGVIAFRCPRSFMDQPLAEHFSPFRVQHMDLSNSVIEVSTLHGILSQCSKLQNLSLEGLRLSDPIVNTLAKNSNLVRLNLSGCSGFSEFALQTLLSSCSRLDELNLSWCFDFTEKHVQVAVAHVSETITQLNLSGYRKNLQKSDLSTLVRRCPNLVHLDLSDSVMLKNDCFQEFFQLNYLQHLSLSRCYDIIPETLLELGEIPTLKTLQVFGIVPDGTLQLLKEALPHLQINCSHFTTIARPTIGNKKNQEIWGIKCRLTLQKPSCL

Binder	koff
B1	2.5 s⁻¹
B2	4.4 s⁻¹

— article PMC11865535 (Nature Communications, 2025)
